Laboratory results: publication PMC10786891, “Massively parallel profiling of RNA-targeting CRISPR-Cas13d”

T1: EsCas13d, nuclease-dead (Eubacterium siraeum, UniProt B0MS50, R295A;H300A;R849A;H854A)
T1 sequence: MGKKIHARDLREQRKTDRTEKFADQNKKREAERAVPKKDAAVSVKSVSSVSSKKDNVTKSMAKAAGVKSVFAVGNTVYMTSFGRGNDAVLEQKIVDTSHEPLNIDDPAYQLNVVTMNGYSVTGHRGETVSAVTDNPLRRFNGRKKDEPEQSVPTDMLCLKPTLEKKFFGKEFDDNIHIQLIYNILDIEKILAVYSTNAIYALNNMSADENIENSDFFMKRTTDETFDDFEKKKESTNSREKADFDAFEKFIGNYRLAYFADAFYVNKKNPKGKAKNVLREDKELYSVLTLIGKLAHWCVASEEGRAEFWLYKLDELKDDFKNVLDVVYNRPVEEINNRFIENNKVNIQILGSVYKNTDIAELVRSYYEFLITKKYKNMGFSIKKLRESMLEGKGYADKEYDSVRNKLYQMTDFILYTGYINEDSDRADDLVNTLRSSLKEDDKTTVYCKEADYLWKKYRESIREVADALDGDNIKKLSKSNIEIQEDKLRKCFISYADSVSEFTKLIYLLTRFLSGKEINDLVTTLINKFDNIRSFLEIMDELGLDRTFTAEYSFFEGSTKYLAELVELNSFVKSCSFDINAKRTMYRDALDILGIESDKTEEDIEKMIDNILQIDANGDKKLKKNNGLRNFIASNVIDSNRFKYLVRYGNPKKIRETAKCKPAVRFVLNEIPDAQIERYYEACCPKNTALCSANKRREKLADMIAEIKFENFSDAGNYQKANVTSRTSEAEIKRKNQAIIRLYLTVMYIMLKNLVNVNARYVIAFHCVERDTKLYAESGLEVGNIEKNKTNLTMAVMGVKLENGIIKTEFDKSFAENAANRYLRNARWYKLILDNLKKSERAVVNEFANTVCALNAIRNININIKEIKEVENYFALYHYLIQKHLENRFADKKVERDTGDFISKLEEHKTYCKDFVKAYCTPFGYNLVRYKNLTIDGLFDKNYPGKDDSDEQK

B1: target 1 C4G,A9G (mixed)
RNA 1: CACCCGUGCAAAAAUGCAGGGGUCUAAAACUGAGCGGAUAACCUCUCUAUGG
RNA 2: GGGAAUGGAUCCACAUCUACGAAUUCGUACCAUAGAGAGGUUGUCCGGUCACCGAGAUCGGAAGAGCACACGU
B2: target 1 A18C (mixed)
RNA 1: CACCCGUGCAAAAAUGCAGGGGUCUAAAACUGAGCGGAUAACCUCUCUAUGG
RNA 2: GGGAAUGGAUCCACAUCUACGAAUUCGUACCAUCGAGAGGUUAUCCGCUCACCGAGAUCGGAAGAGCACACGU
B3: target 1 C7A,C22G (mixed)
RNA 1: CACCCGUGCAAAAAUGCAGGGGUCUAAAACUGAGCGGAUAACCUCUCUAUGG
RNA 2: GGGAAUGGAUCCACAUCUACGAAUUCGUAGCAUAGAGAGGUUAUACGCUCACCGAGAUCGGAAGAGCACACGU
B4: target 1 A1C,A18C (mixed)
RNA 1: CACCCGUGCAAAAAUGCAGGGGUCUAAAACUGAGCGGAUAACCUCUCUAUGG
RNA 2: GGGAAUGGAUCCACAUCUACGAAUUCGUACCAUCGAGAGGUUAUCCGCUCCCCGAGAUCGGAAGAGCACACGU
B5: target 1 insU 3' of 17,insC 3' of 16 (mixed)
RNA 1: CACCCGUGCAAAAAUGCAGGGGUCUAAAACUGAGCGGAUAACCUCUCUAUGG
RNA 2: GGGAAUGGAUCCACAUCUACGAAUUCGUACCAUAGUACGAGGUUAUCCGCUCACCGAGAUCGGAAGAGCACACGU
B6: target 1 C7U,G12U (mixed)
RNA 1: CACCCGUGCAAAAAUGCAGGGGUCUAAAACUGAGCGGAUAACCUCUCUAUGG
RNA 2: GGGAAUGGAUCCACAUCUACGAAUUCGUACCAUAGAGAGUUUAUUCGCUCACCGAGAUCGGAAGAGCACACGU
B7: target 1 insU 3' of 13,insC 3' of 8 (mixed)
RNA 1: CACCCGUGCAAAAAUGCAGGGGUCUAAAACUGAGCGGAUAACCUCUCUAUGG
RNA 2: GGGAAUGGAUCCACAUCUACGAAUUCGUACCAUAGAGAGUGUUAUCCCGCUCACCGAGAUCGGAAGAGCACACGU
B8: target 1 U3G,A14G (mixed)
RNA 1: CACCCGUGCAAAAAUGCAGGGGUCUAAAACUGAGCGGAUAACCUCUCUAUGG
RNA 2: GGGAAUGGAUCCACAUCUACGAAUUCGUACCAUAGAGGGGUUAUCCGCGCACCGAGAUCGGAAGAGCACACGU
B9: target 1 insC 3' of 14,insG 3' of 14 (mixed)
RNA 1: CACCCGUGCAAAAAUGCAGGGGUCUAAAACUGAGCGGAUAACCUCUCUAUGG
RNA 2: GGGAAUGGAUCCACAUCUACGAAUUCGUACCAUAGAGACGGGUUAUCCGCUCACCGAGAUCGGAAGAGCACACGU
B10: target 1 insA 3' of 7,insG 3' of 1 (mixed)
RNA 1: CACCCGUGCAAAAAUGCAGGGGUCUAAAACUGAGCGGAUAACCUCUCUAUGG
RNA 2: GGGAAUGGAUCCACAUCUACGAAUUCGUACCAUAGAGAGGUUAUCACGCUCAGCCGAGAUCGGAAGAGCACACGU
B11: target 1 C2A,G13U (mixed)
RNA 1: CACCCGUGCAAAAAUGCAGGGGUCUAAAACUGAGCGGAUAACCUCUCUAUGG
RNA 2: GGGAAUGGAUCCACAUCUACGAAUUCGUACCAUAGAGAUGUUAUCCGCUAACCGAGAUCGGAAGAGCACACGU
B12: target 1 insC 3' of 18,insU 3' of 5 (mixed)
RNA 1: CACCCGUGCAAAAAUGCAGGGGUCUAAAACUGAGCGGAUAACCUCUCUAUGG
RNA 2: GGGAAUGGAUCCACAUCUACGAAUUCGUACCAUACGAGAGGUUAUCCGUCUCACCGAGAUCGGAAGAGCACACGU
B13: target 1 A1G,A18C (mixed)
RNA 1: CACCCGUGCAAAAAUGCAGGGGUCUAAAACUGAGCGGAUAACCUCUCUAUGG
RNA 2: GGGAAUGGAUCCACAUCUACGAAUUCGUACCAUCGAGAGGUUAUCCGCUCGCCGAGAUCGGAAGAGCACACGU
B14: target 1 insU 3' of 18,insC 3' of 15 (mixed)
RNA 1: CACCCGUGCAAAAAUGCAGGGGUCUAAAACUGAGCGGAUAACCUCUCUAUGG
RNA 2: GGGAAUGGAUCCACAUCUACGAAUUCGUACCAUAUGAGCAGGUUAUCCGCUCACCGAGAUCGGAAGAGCACACGU
B15: target 1 A1C,A20C (mixed)
RNA 1: CACCCGUGCAAAAAUGCAGGGGUCUAAAACUGAGCGGAUAACCUCUCUAUGG
RNA 2: GGGAAUGGAUCCACAUCUACGAAUUCGUACCCUAGAGAGGUUAUCCGCUCCCCGAGAUCGGAAGAGCACACGU
B16: target 1 G5C,G17A (mixed)
RNA 1: CACCCGUGCAAAAAUGCAGGGGUCUAAAACUGAGCGGAUAACCUCUCUAUGG
RNA 2: GGGAAUGGAUCCACAUCUACGAAUUCGUACCAUAAAGAGGUUAUCCCCUCACCGAGAUCGGAAGAGCACACGU
B17: target 1 G5C,C6G (mixed)
RNA 1: CACCCGUGCAAAAAUGCAGGGGUCUAAAACUGAGCGGAUAACCUCUCUAUGG
RNA 2: GGGAAUGGAUCCACAUCUACGAAUUCGUACCAUAGAGAGGUUAUCGCCUCACCGAGAUCGGAAGAGCACACGU
B18: target 1 insU 3' of 9,insU 3' of 2 (mixed)
RNA 1: CACCCGUGCAAAAAUGCAGGGGUCUAAAACUGAGCGGAUAACCUCUCUAUGG
RNA 2: GGGAAUGGAUCCACAUCUACGAAUUCGUACCAUAGAGAGGUUAUUCCGCUCUACCGAGAUCGGAAGAGCACACGU
B19: target 1 A16G,C21U (mixed)
RNA 1: CACCCGUGCAAAAAUGCAGGGGUCUAAAACUGAGCGGAUAACCUCUCUAUGG
RNA 2: GGGAAUGGAUCCACAUCUACGAAUUCGUACUAUAGGGAGGUUAUCCGCUCACCGAGAUCGGAAGAGCACACGU
B20: target 1 C6A,G17A (mixed)
RNA 1: CACCCGUGCAAAAAUGCAGGGGUCUAAAACUGAGCGGAUAACCUCUCUAUGG
RNA 2: GGGAAUGGAUCCACAUCUACGAAUUCGUACCAUAAAGAGGUUAUCAGCUCACCGAGAUCGGAAGAGCACACGU
B21: target 1 C2U,A20C (mixed)
RNA 1: CACCCGUGCAAAAAUGCAGGGGUCUAAAACUGAGCGGAUAACCUCUCUAUGG
RNA 2: GGGAAUGGAUCCACAUCUACGAAUUCGUACCCUAGAGAGGUUAUCCGCUUACCGAGAUCGGAAGAGCACACGU
B22: target 1 U3G,A20U (mixed)
RNA 1: CACCCGUGCAAAAAUGCAGGGGUCUAAAACUGAGCGGAUAACCUCUCUAUGG
RNA 2: GGGAAUGGAUCCACAUCUACGAAUUCGUACCUUAGAGAGGUUAUCCGCGCACCGAGAUCGGAAGAGCACACGU
B23: target 1 C7G,A16G (mixed)
RNA 1: CACCCGUGCAAAAAUGCAGGGGUCUAAAACUGAGCGGAUAACCUCUCUAUGG
RNA 2: GGGAAUGGAUCCACAUCUACGAAUUCGUACCAUAGGGAGGUUAUGCGCUCACCGAGAUCGGAAGAGCACACGU
B24: target 1 insG 3' of 8,insC 3' of 3 (mixed)
RNA 1: CACCCGUGCAAAAAUGCAGGGGUCUAAAACUGAGCGGAUAACCUCUCUAUGG
RNA 2: GGGAAUGGAUCCACAUCUACGAAUUCGUACCAUAGAGAGGUUAUGCCGCUCCACCGAGAUCGGAAGAGCACACGU

The binders below were run against T1, EsCas13d, nuclease-dead (assay: crRNA (strand 1, pre-loaded); Mg2+; 40 mM Tris-HCl pH 7.5, 150 mM NaCl, 6 mM MgCl2, 1 mM DTT, 0.1% Tween-20, 0.2 mg/ml BSA; 25 C; 10 min per concentration, then washed). Conditions: tags: His6-TwinStrep-SUMO cleaved; N-terminal SNAP kept (SNAP-Surface 488); label: 3' end held by stalled T7 RNA polymerase.

Row | Binder | Kd [nM]
1 | B1 | 3.9 ± 0.34
2 | B2 | 51.3 ± 3.5
3 | B3 | 41 ± 6
4 | B4 | 75 ± 29
5 | B5 | 91 ± 20
6 | B6 | 13.4 ± 1.1
7 | B7 | 14.7 ± 1.6
8 | B8 | 12.9 ± 1.2
9 | B9 | 50 ± 6
10 | B10 | 6.8 ± 0.4
11 | B11 | 49 ± 8
12 | B12 | 84 ± 31
13 | B13 | 62 ± 8
14 | B14 | 49 ± 5
15 | B15 | 32 ± 4
16 | B16 | 79 ± 28
17 | B17 | 10.9 ± 0.6
18 | B18 | 20.2 ± 1
19 | B19 | 7.65 ± 0.33
20 | B20 | 37.8 ± 2.4
21 | B21 | 31.4 ± 1.6
22 | B22 | 38 ± 4
23 | B23 | 34 ± 4
24 | B24 | 12.7 ± 0.6
